Measurements taken from patent US20170233497A1 (Genmab, published 2017).
Residue numbers refer to the chain shown, from its start. In names and notes the source's numbering stands.

Columns and labels:
[1] = target: the molecule itself; assay: native mass spectrometry; CH2-CH3 fragment homodimer
Description: (§1) The fragments were analyzed by native mass spectrometry. Samples were buffer-exchanged to 100 mM ammonium acetate pH 7, using 10 kDa MWCO spin-filter columns. Aliquots (˜1 μL) of serial diluted samples (20 μM-25 nM; monomer equivalent) were loaded into gold-plated borosilicate capillaries for analysis on a LCT mass spectrometer (Waters). The monomer signal, Mₛ, was defined as the area of the monomer peaks as a fraction of the area of all peaks in the spectrum (Mₛ/(Mₛ+Dₛ) where Dₛ=the dimer signal). The concentration of monomer at equilibrium, [M]eq, was defined as Mₛ·[M]₀ where [M]₀ is the overall protein concentration in terms of monomer. The dimer concentration at equilibrium, [D]eq, was defined as ([M]₀−[M]eq)/2. The KD, was then extracted from the gradient of a plot of [D]eq versus [M]eq².
It is described in Example 21 that there is a specific range in the strength of the interaction of the CH3-CH3 homodimers that allows efficient Fab-arm-exchange. The strength of the interactions at the CH3 interface should be such that it is possible that both heavy chains in the parental antibodies (homodimers) dissociate in the Fab-arm-exchange reaction and that they subsequently associate in the heterodimerization reaction. To generate a stable heterodimer, the strength of the heterodimer interaction should be greater than the strength of the homodimer interaction, such that it favors heterodimerization over homodimerization. To confirm this, the strength of the CH3-CH3 interaction in the heterodimers was measured and compared to the strength in the homodimers. The KD of the CH2-CH3 fragments derived from IgG1-K409R, IgG1-F405L and IgG1-ITL homodimers were measured as described in Example 21. For the determination of the KD in heterodimers, CH2-CH3 domain fragments (G1-F405L and G1-ITL) were mixed with the IgG1Δhinge fragment of IgG1-7D8-K409R, which contain all antibody domains except the hinge. […] The fragments were mixed and analyzed after 24 hours by native mass spectrometry as described in Example 21. […]

[2] = target: the molecule itself; assay: native mass spectrometry; KD compared to the wild type IgG1 CH2-CH3 fragment
Description: as §1, with “To measure the effect of the above mentioned CH3 mutations on the strength of the CH3-CH3 interaction, fragments composed of only the CH2-CH3 domains were made. The lack of a hinge region in these fragments prevented covalent inter-heavy chain disulfide bonds. The fragments” for “The fragments”

[3] = target: the molecule itself; assay: native mass spectrometry; monomer-dimer equilibrium of the hinge-less CH2-CH3 fragment (homodimer)
Description: as §1, with “To measure the effect of the above mentioned CH3 mutations on the strength of the CH3-CH3 interaction, fragments composed of only the CH2-CH3 domains were made. The lack of a hinge region in these fragments prevented covalent inter-heavy chain disulfide bonds. The fragments” for “The fragments”

[4] = target: the molecule itself; assay: native mass spectrometry; KD compared to the wild type IgG4 CH2-CH3 fragment
Description: as §1, with “To measure the effect of the above mentioned CH3 mutations on the strength of the CH3-CH3 interaction, fragments composed of only the CH2-CH3 domains were made. The lack of a hinge region in these fragments prevented covalent inter-heavy chain disulfide bonds. The fragments” for “The fragments”

B1: CH2-CH3 fragment of human IgG1 with K409R (other, UniProt P01857-1 224-330, looked up, name in EU numbering)
chain: GQPREPQVYTLPPSRDELTKNQVSLTCLVKGFYPSDIAVEWESNGQPENNYKTTPPVLDSDGSFFLYSRLTVDKSRWQQGNVFSCSVMHEALHNHYTQKSLSLSPGK
notes: range 341-447; As m1, with the mutation; also called G1-K409R; not shown: N-terminal 6 amino acid His tag
B1 showed a Kd [1] of 110 nM, a fold-difference [2] of 0.03 fold and a Kd [3] of 110 nM.

B2: CH2-CH3 fragment of wild type human IgG4 (other, UniProt P01861-1 221-327, looked up)
chain: B1 chain with R15Q, D16E, L18M, Q79E, P105L
notes: range 341-447; His-tagged fragment without hinge; the KD is its non-covalent self-association (CH3-CH3 homodimer); not shown: N-terminal 6 amino acid His tag
Work on B2 yielded a fold-difference [4] of 1 fold and a Kd [3] of 48 nM.

B3: CH2-CH3 fragment of human IgG4 with K370Q (other, UniProt P01861-1 221-327, looked up, name in EU numbering)
chain: B1 chain with R15Q, D16E, L18M, K30Q, Q79E, P105L
notes: range 341-447; As m7, with the mutation; also called G4-K370Q; not shown: N-terminal 6 amino acid His tag
B3 gave a fold-difference [4] of 4.3 fold and a Kd [3] of 11 nM.

B4: CH2-CH3 fragment of human IgG4 with S364D (other, UniProt P01861-1 221-327, looked up, name in EU numbering)
chain: B1 chain with R15Q, D16E, L18M, S24D, Q79E, P105L
notes: range 341-447; As m7, with the mutation; also called G4-S364D; not shown: N-terminal 6 amino acid His tag
Protein B4 has a fold-difference [4] of 1.02 fold and a Kd [3] of 47 nM.

B5: CH2-CH3 fragment of human IgG4 with R409M (other, UniProt P01861-1 221-327, looked up, name in EU numbering)
chain: B1 chain with R15Q, D16E, L18M, R69M, Q79E, P105L
notes: range 341-447; As m7, with the mutation; also called G4-R409M; not shown: N-terminal 6 amino acid His tag
In the case of B5, the fold-difference [4] is reported as 16 fold and the Kd [3] is reported as 3 nM.

B6: CH2-CH3 fragment of human IgG4 with F405L (other, UniProt P01861-1 221-327, looked up, name in EU numbering)
chain: B1 chain with R15Q, D16E, L18M, F65L, Q79E, P105L
notes: range 341-447; As m7, with the mutation; also called G4-F405L; not shown: N-terminal 6 amino acid His tag
Protein B6 has a fold-difference [4] of 0.0019 fold and a Kd [3] of 25000 nM.

B7: CH2-CH3 fragment of human IgG4 with K370E (other, UniProt P01861-1 221-327, looked up, name in EU numbering)
chain: B1 chain with R15Q, D16E, L18M, K30E, Q79E, P105L
notes: range 341-447; As m7, with the mutation; also called G4-K370E; not shown: N-terminal 6 amino acid His tag
For B7, the fold-difference [4] was 24 fold and the Kd [3] was 2 nM.

B8: CH2-CH3 fragment of human IgG4 with L351K (other, UniProt P01861-1 221-327, looked up, name in EU numbering)
chain: B1 chain with L11K, R15Q, D16E, L18M, Q79E, P105L
notes: range 341-447; As m7, with the mutation; also called G4-L351K; not shown: N-terminal 6 amino acid His tag
B8 showed a fold-difference [4] of 0.06 fold and a Kd [3] of 740 nM.

B9: CH2-CH3 fragment of human IgG4 with F405A (other, UniProt P01861-1 221-327, looked up, name in EU numbering)
chain: B1 chain with R15Q, D16E, L18M, F65A, Q79E, P105L
notes: range 341-447; As m7, with the mutation; also called G4-F405A; not shown: N-terminal 6 amino acid His tag
With B9 the fold-difference [4] was 0.0025 fold and the Kd [3] was 19000 nM.

B10: CH2-CH3 fragment of human IgG4 with E357T (other, UniProt P01861-1 221-327, looked up, name in EU numbering)
chain: B1 chain with R15Q, D16E, E17T, L18M, Q79E, P105L
notes: range 341-447; As m7, with the mutation; also called G4-E357T; not shown: N-terminal 6 amino acid His tag
B10 showed a fold-difference [4] of 0.0012 fold and a Kd [3] of 41000 nM.

B11: CH2-CH3 fragment of human IgG1 with K370T (other, UniProt P01857-1 224-330, looked up, name in EU numbering)
chain: B1 chain with K30T, R69K
notes: range 341-447; As m1, with the mutation; also called G1-K370T; not shown: N-terminal 6 amino acid His tag
In the case of B11, the fold-difference [2] is reported as 0.07 fold and the Kd [3] is reported as 45 nM.

B12: CH2-CH3 fragment of human IgG4 with R409W (other, UniProt P01861-1 221-327, looked up, name in EU numbering)
chain: B1 chain with R15Q, D16E, L18M, R69W, Q79E, P105L
notes: range 341-447; As m7, with the mutation; also called G4-R409W; not shown: N-terminal 6 amino acid His tag
B12 showed a fold-difference [4] of 0.0014 fold and a Kd [3] of 34000 nM.

B13: CH2-CH3 fragment of human IgG4 with R409L (other, UniProt P01861-1 221-327, looked up, name in EU numbering)
chain: B1 chain with R15Q, D16E, L18M, R69L, Q79E, P105L
notes: range 341-447; As m7, with the mutation; also called G4-R409L; not shown: N-terminal 6 amino acid His tag
B13 was tested, and the fold-difference [4] was 3.2 fold and the Kd [3] was 15 nM.

B14: CH2-CH3 fragment of human IgG4 with R409K (other, UniProt P01861-1 221-327, looked up, name in EU numbering)
chain: B1 chain with R15Q, D16E, L18M, R69K, Q79E, P105L
notes: range 341-447; As m7, with the mutation; also called G4-R409K; not shown: N-terminal 6 amino acid His tag
Work on B14 yielded a fold-difference [4] of 6 fold and a Kd [3] of 8 nM.

B15: CH2-CH3 fragment of human IgG4 with R409A (other, UniProt P01861-1 221-327, looked up, name in EU numbering)
chain: B1 chain with R15Q, D16E, L18M, R69A, Q79E, P105L
notes: range 341-447; As m7, with the mutation; also called G4-R409A; not shown: N-terminal 6 amino acid His tag
Work on B15 yielded a fold-difference [4] of 0.3 fold and a Kd [3] of 160 nM.

B16: CH2-CH3 fragment of human IgG1 with F405L (other, UniProt P01857-1 224-330, looked up, name in EU numbering)
chain: B1 chain with F65L, R69K
notes: range 341-447; As m1, with the mutation; also called G1-F405L; not shown: N-terminal 6 amino acid His tag
Work on B16 yielded a Kd [1] of 850 nM.

B17: CH2-CH3 fragment of human IgG1 with T350I (other, UniProt P01857-1 224-330, looked up, name in EU numbering)
chain: B1 chain with T10I, R69K
notes: range 341-447; As m1, with the mutation; also called G1-T350I; not shown: N-terminal 6 amino acid His tag
B17 showed a fold-difference [2] of 0.4 fold and a Kd [3] of 7 nM.

B18: CH2-CH3 fragment of human IgG4 with R409T (other, UniProt P01861-1 221-327, looked up, name in EU numbering)
chain: B1 chain with R15Q, D16E, L18M, R69T, Q79E, P105L
notes: range 341-447; As m7, with the mutation; also called G4-R409T; not shown: N-terminal 6 amino acid His tag
B18 was tested, and the fold-difference [4] was 0.07 fold and the Kd [3] was 720 nM.

B19: CH2-CH3 fragment of human IgG1 with T350I-K370T-F405L (other, UniProt P01857-1 224-330, looked up, name in EU numbering)
chain: B1 chain with T10I, K30T, F65L, R69K
notes: range 341-447; also called G1-ITL; not shown: N-terminal 6 amino acid His tag
With B19 the Kd [1] was 1200 nM, the fold-difference [2] was 0.003 fold and the Kd [3] was 1000 nM.
